According to patent publication US20250092135A1 (NANJING LEADS BIOLABS, published 2025):
Substitutions are numbered along the chain they refer to. Values belong to the binder of their own block, whether it stands above or below them.

What was measured:
human GPRC5D protein [1] = biological target: T1, human GPRC5D protein (human, UniProt Q9NZD1 1-345); assay: flow cytometry, HEK293T-HuGPRC5D cells (sheet: 293T-huGPRC5D), PE anti-human IgG Fc secondary, MFI
T1 construct: NCI-H929 cells express it endogenously in the functional assays; also called HuGPRC5D; huGPRC5D
T1 sequence (Q9NZD1 whole entry): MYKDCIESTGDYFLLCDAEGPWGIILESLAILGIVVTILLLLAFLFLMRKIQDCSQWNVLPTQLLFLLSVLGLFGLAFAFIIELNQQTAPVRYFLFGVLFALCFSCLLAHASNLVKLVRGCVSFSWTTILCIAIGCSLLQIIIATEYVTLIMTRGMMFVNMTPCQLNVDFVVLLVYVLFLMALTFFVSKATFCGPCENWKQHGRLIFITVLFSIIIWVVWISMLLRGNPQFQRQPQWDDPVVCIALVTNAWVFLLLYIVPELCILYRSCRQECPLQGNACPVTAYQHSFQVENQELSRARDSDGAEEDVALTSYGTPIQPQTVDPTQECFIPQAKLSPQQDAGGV
Method: (§1) Whether the anti-GPRC5D chimeric antibodies in the present invention could bind to the human GPRC5D protein or cynomolgus monkey GPRC5D protein stably expressed on the cell surface was determined by cell binding experiments.
(§2) The HEK293T-HuGPRC5D cell line and HEK293T-CynoGPRC5D shown in Table 2 were subjected to enzymatic digestion to obtain single cell suspensions of the two types of cells. The single cell suspensions were centrifuged at room temperature at 400×g, and then the media were discarded. The resulting cell pellets were washed once with PBS and then resuspended in the serially diluted anti-GPRC5D chimeric antibodies shown in Table 5 and the control antibody GC5B596 (at an initial concentration of 133.3 nM, 4-fold gradient dilution, 8 concentrations in total), and the cells were incubated at 4° C. for 30 min. The cells were washed once with PBS, and then fluorescent secondary antibody R-PE-conjugated AffiniPure Goat Anti-Human IgG, Fcγ Fragment Specific (Jackson ImmunoResearch, Cat #109-116-098) diluted in a 1:200 ratio was added. The cells were incubated in the dark at 4° C. for 30 min. The cells were washed twice with PBS and then resuspended, and finally, two-channel fluorescence signals were detected using a BD Accuri C5 (BD Bioscience) flow cytometer.

[2] = biological target: T2, cynomolgus monkey GPRC5D protein (cynomolgus monkey, UniProt Q9NZD1 1-343 (human entry)); assay: flow cytometry, HEK293T-CynoGPRC5D cells (sheet: 293T-cynoGPRC5D), PE anti-human IgG Fc secondary, MFI
T2 construct: also called CynoGPRC5D; on HEK293T-CynoGPRC5D cells
T2 chain: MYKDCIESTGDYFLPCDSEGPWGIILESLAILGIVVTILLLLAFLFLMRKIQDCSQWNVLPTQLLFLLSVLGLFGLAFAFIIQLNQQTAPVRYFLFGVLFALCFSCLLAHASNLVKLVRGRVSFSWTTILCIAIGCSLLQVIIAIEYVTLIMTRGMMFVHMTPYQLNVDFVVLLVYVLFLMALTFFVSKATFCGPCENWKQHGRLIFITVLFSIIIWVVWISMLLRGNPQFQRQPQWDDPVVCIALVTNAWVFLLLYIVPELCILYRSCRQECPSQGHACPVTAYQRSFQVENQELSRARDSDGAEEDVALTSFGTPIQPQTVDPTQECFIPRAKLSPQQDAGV
Method: as §1, §2

human GPRC5D protein [3] = biological target: T1, human GPRC5D protein; assay: flow cytometry, HEK293T cells stably expressing human GPRC5D (sheet: 293T-huGPRC5D), PE anti-human IgG Fc secondary, MFI
Method: (2) Whether the anti-CD3/anti-GPRC5D bispecific antibodies in the present invention could bind to HEK293T cells stably expressing the human GPRC5D protein was determined by cell binding experiments. […] The plate was centrifuged at room temperature at 400×g, and then the supernatant was discarded. The cells were washed twice with PBS and centrifuged. The supernatant was discarded. The cell pellet was resuspended in fluorescent secondary antibody R-PE-conjugated AffiniPure Goat Anti-Human IgG, Fcγ Fragment Specific (Jackson ImmunoResearch, Cat #109-116-098) diluted in a 1:200 ratio. The cells were incubated in the dark at 4° C. for 30 min. The cells were washed twice with PBS, and 100 μL of PBS was added to each well to resuspend the cells. Fluorescence signals were detected using a Beckman Cytoflex flow cytometer.

human GPRC5D protein [4] = biological target: T1, human GPRC5D protein; assay: flow cytometry, HEK293T-HuGPRC5D cells (sheet: 293T-huGPRC5D), PE anti-human IgG Fc secondary, MFI; remark: listed apart in the source
Method: Whether the anti-GPRC5D humanized antibodies in the present invention could bind to the human GPRC5D protein stably expressed on the cell surface was determined by cell binding experiments. The HEK293T-HuGPRC5D cell line shown in Table 2 was subjected to enzymatic digestion to obtain a single cell suspension of the HEK293T-huGPRC5D cells. The single cell suspension was centrifuged at room temperature at 400×g, and then the medium was discarded. The cell pellet was washed once with PBS and then resuspended in the serially diluted anti-GPRC5D humanized antibodies and the murine chimeric antibody 29H12C9 (at an initial concentration of 166.67 nM, 4-fold gradient dilution, 8 concentration points in total), and the cells were incubated at 4° C. for 30 min. The cells were washed once with PBS, and then fluorescent secondary antibody R-PE-conjugated AffiniPure Goat Anti-Human IgG, Fcγ Fragment Specific (Jackson ImmunoResearch, Cat #109-116-098) diluted in a 1:200 ratio was added. The cells were incubated in the dark at 4° C. for 30 min. The cells were washed twice with PBS and then resuspended, and finally, two-channel fluorescence signals were detected using a Beckman Cytoflex flow cytometer.

- EC50 (read off the curve) (human GPRC5D protein [1]): ~3 nM
- EC50 (read off the curve) [2]: ~3 nM
B1: chimeric antibody 29H12C9 (antibody, human IgG1, kappa, V domains shown)
VH: QVQLQQPGAELVKPGASVKLSCKASGYTFTTHYMYWVKQRPGQGLEWIGGINPSNGATNFNEKFKTKATLTVDKSSSTAYMQLSSLTSEDSAVYYCTRVGGLSYTMDYWGQGTSVTVSS
VL: DIVMSQSPSSLAVSVGEKVSMSCKSSQSLLYSSNQKNYLAWYQQKPGQSPKLLIYWASTRESGVPDRFTGSGYGTDFTLTISSMKAEDLAVYYCQQYYSYPRTFGGGTKLDIKR
notes: also called murine chimeric antibody 29H12C9; murine control antibody (29H12C9)

- EC50 (read off the curve) (human GPRC5D protein [3]): ~3 nM
B2: anti-CD3/GPRC5D bispecific antibody Bi-29H6/23L2 (bispecific antibody, human IgG1, kappa, L234A L235A)
heavy 1: QVQLVQSGAEVKKPGASVKVSCKASGYTFTTHYMYWVRQAPGQGLEWIGGINPSNGATNFNEKFKTKATLTVDKSTSTAYMELSSLRSEDTAVYYCTRVGGLSYTMDYWGQGTLVTVSSASTKGPSVFPLAPSSKSTSGGTAALGCLVKDYFPEPVTVSWNSGALTSGVHTFPAVLQSSGLYSLSSVVTVPSSSLGTQTYICNVNHKPSNTKVDKKVEPKSCDKTHTCPPCPAPEAAGGPSVFLFPPKPKDTLMISRTPEVTCVVVAVSHEDPEVKFNWYVDGVEVHNAKTKPREEQYNSTYRVVSVLTVLHQDWLNGKEYKCKVSNKALAAPIEKTISKAKGQPREPQVCTLPPSRDELTKNQVSLSCAVKGFYPSDIAVEWESNGQPENNYKTTPPVLDSDGSFFLVSKLTVDKSRWQQGNVFSCSVMHEALHNHYTQKSLSLSPGK
heavy 2: not shown
light: not shown

- EC50 (read off the curve) (human GPRC5D protein [3]): ~2 nM
B3: anti-CD3/GPRC5D bispecific antibody Bi-29H6-2 (bispecific antibody, human IgG1, kappa, L234A L235A)
heavy 1: B2 heavy 1
heavy 2: not shown
light: not shown

- EC50 (read off the curve) (human GPRC5D protein [3]): ~3 nM
B4: anti-CD3/GPRC5D bispecific antibody Bi-29H6GE/23L2 (bispecific antibody, human IgG1, kappa, L234A L235A)
heavy 1: B2 heavy 1 with G56E
heavy 2: not shown
light: not shown

- binding result (human GPRC5D protein [3]): binds
B5: anti-CD3/GPRC5D bispecific antibody Bi-29H6-5 (bispecific antibody, human IgG1, kappa, L234A L235A)
heavy 1: B2 heavy 1 with N55S
heavy 2: not shown
light: not shown

- EC50 (read off the curve) (human GPRC5D protein [3]): ~6 nM
B6: anti-CD3/GPRC5D bispecific antibody Bi-29H6-1 (bispecific antibody)
chain: EPKSSDKTHTCPPCPAPEAAGGPSVFLFPPKPKDTLMISRTPEVTCVVVAVSHEDPEVKFNWYVDGVEVHNAKTKPREEQYNSTYRVVSVLTVLHQDWLNGKEYKCKVSNKALAAPIEKTISKAKGQPREPQVCTLPPSRDELTKNQVSLSCAVKGFYPSDIAVEWESNGQPENNYKTTPPVLDSDGSFFLVSKLTVDKSRWQQGNVFSCSVMHEALHNHYTQKSLSLSPGK
heavy: not shown
light: not shown

- EC50 (read off the curve) (human GPRC5D protein [3]): ~10 nM
B7: anti-CD3/GPRC5D bispecific antibody Bi-29H6-3 (bispecific antibody)
chain: B6 chain
heavy: not shown
light: not shown

- binding result (human GPRC5D protein [4]): binds
B8: humanized anti-GPRC5D antibody 29H2 (antibody, human IgG1, kappa, V domains shown)
VH: QVQLVQSGAEVKKPGASVKVSCKASGYTFTTHYMYWVRQAPGQGLEWMGGINPSNGATNFNEKFKTRVTLTVDKSTSTAYMELSSLRSEDTAVYYCTRVGGLSYTMDYWGQGTLVTVSS
VL: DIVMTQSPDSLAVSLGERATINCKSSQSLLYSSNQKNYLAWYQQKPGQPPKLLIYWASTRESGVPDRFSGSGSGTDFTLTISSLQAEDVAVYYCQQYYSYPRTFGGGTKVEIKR
notes: Human IgG1 / kappa

- binding result (human GPRC5D protein [4]): binds
B9: humanized anti-GPRC5D antibody 29H6 (antibody, human IgG1, kappa, V domains shown)
VH: B8 VH with M48I, R67K, V68A
VL: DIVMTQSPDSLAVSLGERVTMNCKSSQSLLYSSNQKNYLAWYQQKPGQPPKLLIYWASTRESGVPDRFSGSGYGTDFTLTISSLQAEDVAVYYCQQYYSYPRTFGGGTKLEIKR
notes: Human IgG1 / kappa

- binding result (human GPRC5D protein [4]): binds
B10: humanized anti-GPRC5D antibody 29H20 (antibody, human IgG1, kappa, V domains shown)
VH: B8 VH with M48I, T76I, S85R, E89D
VL: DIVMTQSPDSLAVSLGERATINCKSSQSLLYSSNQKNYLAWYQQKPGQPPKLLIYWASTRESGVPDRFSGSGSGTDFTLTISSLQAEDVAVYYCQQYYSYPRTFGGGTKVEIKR
notes: Human IgG1 / kappa

- binding result (human GPRC5D protein [4]): binds
B11: humanized anti-GPRC5D antibody 29H21 (antibody, human IgG1, kappa, V domains shown)
VH: B8 VH with M48I, T76I, S85R, E89D
VL: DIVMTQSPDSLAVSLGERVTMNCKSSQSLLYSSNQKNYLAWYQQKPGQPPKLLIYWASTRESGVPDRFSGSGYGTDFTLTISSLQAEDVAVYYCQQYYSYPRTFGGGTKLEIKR
notes: Human IgG1 / kappa

- binding result (human GPRC5D protein [4]): binds
B12: humanized anti-GPRC5D antibody 29H24 (antibody, human IgG1, kappa, V domains shown)
VH: B8 VH with R38K, M48I, R67K, V68A, T76I, S85R, E89D
VL: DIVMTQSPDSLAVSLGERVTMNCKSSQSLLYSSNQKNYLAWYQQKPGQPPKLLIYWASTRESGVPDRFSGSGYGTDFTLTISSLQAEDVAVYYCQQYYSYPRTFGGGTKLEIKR
notes: Human IgG1 / kappa

- EC50 (read off the curve) (human GPRC5D protein [1]): ~3 nM
- binding result [2]: binds
B13: chimeric antibody 4B9E9 (antibody, human IgG1, kappa, V domains shown)
VH: DVQLVESGGGLVQPRGSRKLSCAASGFTFSSFGMHWVRQAPEKGLEWVAYISSDSNTIYYADTVQGRFTISRDNPKNTLFLQMTRLRSEDTAMYYCARNPWYFDVWGAGTTVTVSS
VL: DVLMTQTPLSLPVSLGDQVSISCRSSQSIVHSNGNTYLEWFLQKPGQSPKLLIYKVSNRFSGVPDRFSGSGSGTDFTLKISRVEAEDLGIYYCFQGSHIPPTFGGGTKLEIKR
notes: Murine variable regions on human IgG1 and kappa constant regions

- EC50 (read off the curve) (human GPRC5D protein [1]): ~3 nM
- EC50 (read off the curve) [2]: ~4 nM
B14: chimeric antibody 39A9F1 (antibody, human IgG1, kappa, V domains shown)
VH: QVQLQQPGAELVKPGSSVKLSCKASGYTFTTYWMEWVKQRPGQGLEWIGEINPNNGRSNYNEKFQTKATLTVDKSSSTAYMQFSSLTSEDSAVYYCARERAGLTYWGQGTLVIVSA
VL: DVVMTQTPLSLPVSLGDQASISCRSSQSLVHSNGNTYLHWYLQKPGQSPKLLIYKVSNRFSGVPDRFGGSGSGTDFTLKISRVEAEDLGVYFCSQSTHFPYTFGGGTKLEIKR
notes: as for B13
